Data on one substance can be found in US20200197536A1.

The assay deals with Met (hepatocyte growth factor receptor) on Hep3B cells (human) (UniProt P08581). The assay can be described thus: flow cytometry saturation binding of Alexa Fluor 647-labeled protocells (0.015 wt % MC40, about 6 peptides/particle) on cytochalasin D-treated Hep3B cells; non-specific binding measured with saturating unlabeled hepatocyte growth factor and subtracted.
Sequence of UniProt P08581 (P08581 25-1390): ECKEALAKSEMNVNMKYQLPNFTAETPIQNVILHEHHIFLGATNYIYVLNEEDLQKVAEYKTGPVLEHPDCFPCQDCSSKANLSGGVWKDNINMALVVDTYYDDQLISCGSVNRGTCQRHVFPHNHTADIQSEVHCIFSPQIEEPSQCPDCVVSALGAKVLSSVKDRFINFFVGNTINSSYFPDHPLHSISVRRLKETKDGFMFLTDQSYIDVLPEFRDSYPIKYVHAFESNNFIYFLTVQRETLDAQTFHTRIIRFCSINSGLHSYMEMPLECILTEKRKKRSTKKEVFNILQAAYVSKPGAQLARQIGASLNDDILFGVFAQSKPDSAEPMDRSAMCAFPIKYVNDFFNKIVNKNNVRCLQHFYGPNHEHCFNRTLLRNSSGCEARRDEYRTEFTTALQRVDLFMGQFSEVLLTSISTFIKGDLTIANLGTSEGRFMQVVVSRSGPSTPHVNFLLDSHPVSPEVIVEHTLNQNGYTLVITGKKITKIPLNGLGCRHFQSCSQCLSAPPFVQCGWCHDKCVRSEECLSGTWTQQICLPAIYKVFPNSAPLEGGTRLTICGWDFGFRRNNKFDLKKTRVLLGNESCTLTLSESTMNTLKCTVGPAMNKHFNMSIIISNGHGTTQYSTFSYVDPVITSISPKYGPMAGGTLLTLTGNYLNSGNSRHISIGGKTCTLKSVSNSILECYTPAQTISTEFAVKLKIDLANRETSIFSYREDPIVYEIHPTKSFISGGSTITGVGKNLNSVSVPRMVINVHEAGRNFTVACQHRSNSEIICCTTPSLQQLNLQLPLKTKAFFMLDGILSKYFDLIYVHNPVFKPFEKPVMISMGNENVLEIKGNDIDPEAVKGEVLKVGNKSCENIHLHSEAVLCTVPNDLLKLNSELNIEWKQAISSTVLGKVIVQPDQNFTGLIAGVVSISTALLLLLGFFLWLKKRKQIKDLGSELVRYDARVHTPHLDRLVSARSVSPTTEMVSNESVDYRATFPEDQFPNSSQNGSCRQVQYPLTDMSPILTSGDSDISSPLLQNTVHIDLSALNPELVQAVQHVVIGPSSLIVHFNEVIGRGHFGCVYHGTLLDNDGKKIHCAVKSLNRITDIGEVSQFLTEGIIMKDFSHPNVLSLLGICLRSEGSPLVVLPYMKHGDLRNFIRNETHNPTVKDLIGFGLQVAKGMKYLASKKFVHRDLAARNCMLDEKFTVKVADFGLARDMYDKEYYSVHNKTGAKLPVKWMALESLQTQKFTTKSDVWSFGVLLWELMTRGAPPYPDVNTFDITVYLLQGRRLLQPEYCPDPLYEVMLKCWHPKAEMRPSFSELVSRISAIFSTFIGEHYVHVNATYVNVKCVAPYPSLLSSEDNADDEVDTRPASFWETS

As to “MC40-targeted protocells (mesoporous silica nanoparticle-supported lipid bilayer modified with 0.015 wt % MC40 targeting peptide)”, the Kd was determined as 1.05 nM.
